Experimental data reported in paper PMC3103433 (2011).
Blank lines part the entries; values can stand above or below the substance they belong to.

Assays:
[1] = target: CIRK-treated Munc18c; assay: GST pull-down, anti-Munc18c immunoblot quantification; details: 1 μg GST fusion on glutathione-Sepharose, 1 μg Munc18c pre-treated with 370 ng CIRK for 150 min, binding buffer, overnight, 4°C, n=3, read off a plot, scale: % of control Munc18c bound to wild-type Sx4
[2] = target: VAMP2 (UniProt P63044); assay: GST pull-down, anti-Munc18c and anti-pTyr blots; details: reference: Munc18c incubated without CIRK; sites Y521
[3] = target: Syntaxin 4 (Sx4) cytosolic domain, 1-273 (UniProt P70452); assay: GST pull-down, anti-Munc18c and anti-pTyr blots; details: reference: Munc18c incubated without CIRK; sites Y521

Chain of Sx4 lacking the N-terminal 36 amino acids (N36Δ), GST fusion (P70452 whole entry, looked up, stated change not applied, the tested form may be a part): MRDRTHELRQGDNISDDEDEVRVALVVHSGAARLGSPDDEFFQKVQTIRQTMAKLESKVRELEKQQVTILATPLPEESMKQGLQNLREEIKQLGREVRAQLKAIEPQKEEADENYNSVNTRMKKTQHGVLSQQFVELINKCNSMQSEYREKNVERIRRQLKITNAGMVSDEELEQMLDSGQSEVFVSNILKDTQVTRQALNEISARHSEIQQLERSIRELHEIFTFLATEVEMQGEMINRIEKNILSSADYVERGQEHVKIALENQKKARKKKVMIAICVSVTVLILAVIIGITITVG
Chain of Sx4-GST, wild-type Syntaxin 4 cytosolic domain (residues 1-273) (P70452 whole entry L173A/E174A, looked up, the tested form may be a part): as the sequence (P70452 whole entry, looked up, stated change not applied, the tested form may be a part) above, with L173A, E174A counted along it

other: % Munc18c bound relative to wild-type Sx4 ([1]; parent: est. 71): 64
Substance: Sx4-GST, wild-type Syntaxin 4 cytosolic domain (residues 1-273) (from UniProt P70452) L173A; E174A

other: % Munc18c bound relative to wild-type Sx4 ([1]; parent: est. 9): 10
Substance: Sx4 lacking the N-terminal 36 amino acids (N36Δ), GST fusion (from UniProt P70452) L173A; E174A

binding against the reference [2]: weaker
Substance: Munc18c (from UniProt Q60770) CIRK-treated Munc18c (pTyr form absent from pull-down)

other: percent decrease [3]: 30%
Substance: Munc18c (from UniProt Q60770) Munc18c pre-treated with CIRK
